Eleven molecules from patent publication US20140287029A1 (US Dept. of Health and Human Services, published 2014) can be followed below.

B1: NGEP peptide P356 (L) (peptide)
peptide: WLLPAAVVGT
notes: Synthetic peptide, purity >95%; positions counted on the NGEP long form (L)
B2: NGEP peptide P855 (L) (peptide)
peptide: IVFEHVVFSV
notes: as for B1
B3: NGEP peptide P143 (peptide)
peptide: FLDNIRAAGL
notes: Synthetic peptide, purity >95%; also called P143 (5)
B4: NGEP peptide P703 (L) (peptide)
peptide: GLFDEYLEMV
notes: Synthetic peptide, purity >95%; positions counted on the NGEP long form (L); also called NGEP-P703
B5: MUC-1 (P1240) peptide (peptide)
peptide: SLSYTNPAV
notes: Synthetic control peptide, purity >95%; also called positive control peptide
B6: NGEP peptide P10 (S) (peptide)
peptide: GLGGPPLPTL
notes: Synthetic peptide, purity >95%; positions counted on the NGEP short form (S)
B7: NGEP peptide P846 (L) (peptide)
peptide: LLAIRLWAV
notes: as for B1
B8: NGEP peptide P113 (S) (peptide)
peptide: LVWEEDLKL
notes: as for B6
B9: NGEP peptide P258 (L) (peptide)
peptide: ILFEILAKT
notes: as for B1
B10: NGEP peptide P170 (L) (peptide)
peptide: ALLSASWAV
notes: as for B1
B11: NGEP peptide P215 (L) (peptide)
peptide: VLLEVVPDV
notes: as for B1

The target in the assay is T1, HLA-A2 molecules on T2 cells (human).
T1 construct: whole, on cells; MHC class I molecule on the surface of T2 cells
The experiment in a line: T2 cell-binding assay, flow cytometry of HLA-A2 on T2 cells, peptide 25 µg/mL. The source says: The T2 binding values are expressed in mean fluorescence intensity. The values in parentheses are fold increases as compared with the negative control (CAP-7 peptide).
(In general: In flow cytometry, cells or beads pass a laser one at a time.)
On to B1, for which the “T2 Binding (mean fluorescence intensity)” value stood at 354 MFI and the “fold increase compared with the negative control (CAP-7 peptide)” value (“fold increase” for short) was determined as 4 fold.
The matching figures for B2: 203 MFI and 2.3 fold.
Taken in the same sequence, the figures for B3 were 203 MFI and 2.3 fold.
The matching figures for B4: 565 MFI and 6.4 fold.
Consider B5, for which the “T2 Binding (mean fluorescence intensity)” value is 452 MFI and the “fold increase” value was found to be 5.1 fold.
The matching figures for B6: 212 MFI and 2.4 fold.
Taken in the same sequence, the figures for B7 were 126 MFI and 1.4 fold.
Taken in the same sequence, the figures for B8 were 367 MFI and 4.1 fold.
B9: the “T2 Binding (mean fluorescence intensity)” value came out at 280 MFI and the “fold increase” value came to 3.1 fold.
Take B10: the “T2 Binding (mean fluorescence intensity)” value stood at 185 MFI and the “fold increase” value worked out at 2.1 fold.
Taken in the same sequence, the figures for B11 were 464 MFI and 5.2 fold.
